B1: Myc-tagged FLNc d18–21 WT (expressed in C2 cells) [human] / FILIP1 CT-GFP (expressed in C2 cells) [not stated] (parent)
chain 1: MRSRNQGGESASDGHISCPKPSIIGNAGEKSLSEDAKKKKKSNRKEDDVMASGTVKRHLKTSGECERKTKKSLELSKEDLIQLLSIMEGELQAREDVIHMLKTEKTKPEVLEAHYGSAEPEKVLRVLHRDAILAQEKSIGEDVYEKPISELDRLEEKQKETYRRMLEQLLLAEKCHRRTVYELENEKHKHTDYMNKSDDFTNLLEQERERLKKLLEQEKAYQARKEKENAKRLNKLRDELVKLKSFALMLVDERQMHIEQLGLQSQKVQDLTQKLREEEEKLKAITSKSKEDRQKLLKLEVDFEHKASRFSQEHEEMNAKLANQESHNRQLRLKLVGLTQRIEELEETNKNLQKAEEELQELRDKIAKGECGNSSLMAEVENLRKRVLEMEGKDEEITKTESQCRELRKKLQEEEHHSKELRLEVEKLQKRMSELEKLEEAFSKSKSECTQLHLNLEKEKNLTKDLLNELEVVKSRVKELECSESRLEKAELSLKDDLTKLKSFTVMLVDERKNMMEKIKQEERKVDGLNKNFKVEQGKVMDVTEKLIEESKKLLKLKSEMEEKVYNLTRERDELIGKLKSEEEKSSELSCSVDLLKKRLDGIEEVEREITRGRSRKGSELTCPEDNKIKELTLEIERLKKRLQQLEVVEGDLMKTEDEYDQLEQKFRTEQDKANFLSQQLEEIKHQIAKNKAIEKGEVVSQEAELRHRFRLEEAKSRDLKAEVQALKEKIHELMNKEDQLSQLQVDYSVLQQRFMEEENKNKNMGQEVLNLTKELELSKRYSRALRPSVNGRRMVDVPVTSTGVQTDAVSGEAAEEETPAVFIRKSFQEENHIMSNLRQVGLKKPVERSSVLDRYPPAANELTMRKSWIPWMRKRENGPSITQEKGPRTNSSPGHPGEVVLSPKQGQPLHIRVTPDHENSTATLEITSPTSEEFFSSTTVIPTLGNQKPRITIIPSPNVMPQKQKSGDTTLGPERAMSPVTITTFSREKTPESGRGAFADRPTSPIQIMTVSTSAAPAEIAVSPESQEMPMGRTILKVTPEKQTVPTPVRKYNSNANIITTEDNKIHIHLGSQFKRSPGTSGEGVSPVITVRPVNVTAEKEVSTGTVLRSPRNHLSSRPGASKVTSTITITPVTTSSARGTQSVSGQDGSSQRPTPTRIPMSKGMKAGKPVVAAPGAGNLTKFEPRAETQSMKIELKKSAASSTTSLGGGKG
chain 2: TGDDSMRTSQLNVGTSTDVSLKITESDLSQLTASIRAPSGNEEPCLLKRLPNRHIGISFTPKEVGEHVVSVRKSGKHVTNSPFKILVGPSEIGDASKVRVWGKGLSEGHTFQVAEFIVDTRNAGYGGLGLSIEGPSKVDINCEDMEDGTCKVTYCPTEPGTYIINIKFADKHVPGSPFTVKVTGEGRMKESITRRRQAPSIATIGSTCDLNLKIPGNWFQMVSAQERLTRTFTRSSHTYTRTERTEISKTRGGETKREVRVEESTQVGGDPFPAVFGDFLGRERLGSFGSITRQQEGEASSQDMTAQVTSPSGKVEAAEIVEGEDSAYSVRFVPQEMGPHTVAVKYRGQHVPGSPFQFTVGPLGEGGAHKVRAGGTGLERGVAGVPAEFSIWTREAGAGGLSIAVEGPSKAEIAFEDRKDGSCGVSYVVQEPGDYEVSIKFNDEHIPDSPFVVPVASLSDDARR
B2: Myc-hFLNc d18–21 wild type (expressed in HEK293 cells) [human] / FILIP1 CT-GFP (expressed in HEK293 cells) [not stated] (parent)
chain 1: LELSKRYSRALRPSVNGRRMVDVPVTSTGVQTDAVSGEAAEEETPAVFIRKSFQEENHIMSNLRQVGLKKPVERSSVLDRYPPAANELTMRKSWIPWMRKRENGPSITQEKGPRTNSSPGHPGEVVLSPKQGQPLHIRVTPDHENSTATLEITSPTSEEFFSSTTVIPTLGNQKPRITIIPSPNVMPQKQKSGDTTLGPERAMSPVTITTFSREKTPESGRGAFADRPTSPIQIMTVSTSAAPAEIAVSPESQEMPMGRTILKVTPEKQTVPTPVRKYNSNANIITTEDNKIHIHLGSQFKRSPGTSGEGVSPVITVRPVNVTAEKEVSTGTVLRSPRNHLSSRPGASKVTSTITITPVTTSSARGTQSVSGQDGSSQRPTPTRIPMSKESIIIHQLRMNSR
chain 2: B1 chain 2

Variants of: B1
Assay: co-immunoprecipitation (anti-Myc) with quantitative immunoblot
Conditions: C2 cells transiently expressing FILIP1 CT-GFP and Myc-hFLNc d18–21, n = 3, read off a plot

Variant | ratio to parent
chain 2 TGDDSMRTSQLNVGTSTDVSLKITESDLSQLTASIRAPSGNEEPCLLKRLPNRHIGISFTPKEVGEHVVSVRKSGKHVTNSPFKILVGPSEIGDASKVRVWGKGLSEGHTFQVAEFIVDTRNAGYGGLGLSIEGPSKVDINCEDMEDGTCKVTYCPTEPGTYIINIKFADKHVPGSPFTVKVTGEGRMKESITRRRQAPSIATIGSTCDLNLKIPGNWFQMVSAQERLTRTFTRSSHTYTRTERTEISKTRGGETKREVRVEESTQVGGDPFPAVFGDFLGRERLGAFGAITRQQEGEASSQDMTAQVTSPSGKVEAAEIVEGEDSAYSVRFVPQEMGPHTVAVKYRGQHVPGSPFQFTVGPLGEGGAHKVRAGGTGLERGVAGVPAEFSIWTREAGAGGLSIAVEGPSKAEIAFEDRKDGSCGVSYVVQEPGDYEVSIKFNDEHIPDSPFVVPVASLSDDARR [chain 2 S287A S290A] | 1.8
chain 2 TGDDSMRTSQLNVGTSTDVSLKITESDLSQLTASIRAPSGNEEPCLLKRLPNRHIGISFTPKEVGEHVVSVRKSGKHVTNSPFKILVGPSEIGDASKVRVWGKGLSEGHTFQVAEFIVDTRNAGYGGLGLSIEGPSKVDINCEDMEDGTCKVTYCPTEPGTYIINIKFADKHVPGSPFTVKVTGEGRMKESITRRRQAPSIATIGSTCDLNLKIPGNWFQMVSAQERLTRTFTRSSHTYTRTERTEISKTRGGETKREVRVEESTQVGGDPFPAVFGDFLGRERLGDFGDITRQQEGEASSQDMTAQVTSPSGKVEAAEIVEGEDSAYSVRFVPQEMGPHTVAVKYRGQHVPGSPFQFTVGPLGEGGAHKVRAGGTGLERGVAGVPAEFSIWTREAGAGGLSIAVEGPSKAEIAFEDRKDGSCGVSYVVQEPGDYEVSIKFNDEHIPDSPFVVPVASLSDDARR [chain 2 S287D S290D] | 0.82

Variants of: B2
Assay: as above
Conditions: HEK293 cells transiently expressing FILIP1 CT-GFP and Myc-hFLNc d18–21, n = 3–6, read off a plot

Variant | ratio to parent
chain 2 TGDDSMRTSQLNVGTSTDVSLKITESDLSQLTASIRAPSGNEEPCLLKRLPNRHIGISFTPKEVGEHVVSVRKSGKHVTNSPFKILVGPSEIGDASKVRVWGKGLSEGHTFQVAEFIVDTRNAGYGGLGLSIEGPSKVDINCEDMEDGTCKVTYCPTEPGTYIINIKFADKHVPGSPFTVKVTGEGRMKESITRRRQAPSIATIGSTCDLNLKIPGNWFQMVSAQERLTRTFTRSSHTYTRTERTEISKTRGGETKREVRVEESTQVGGDPFPAVFGDFLGRERLGAFGAITRQQEGEASSQDMTAQVTSPSGKVEAAEIVEGEDSAYSVRFVPQEMGPHTVAVKYRGQHVPGSPFQFTVGPLGEGGAHKVRAGGTGLERGVAGVPAEFSIWTREAGAGGLSIAVEGPSKAEIAFEDRKDGSCGVSYVVQEPGDYEVSIKFNDEHIPDSPFVVPVASLSDDARR [chain 2 S287A S290A] | 2.1
chain 2 TGDDSMRTSQLNVGTSTDVSLKITESDLSQLTASIRAPSGNEEPCLLKRLPNRHIGISFTPKEVGEHVVSVRKSGKHVTNSPFKILVGPSEIGDASKVRVWGKGLSEGHTFQVAEFIVDTRNAGYGGLGLSIEGPSKVDINCEDMEDGTCKVTYCPTEPGTYIINIKFADKHVPGSPFTVKVTGEGRMKESITRRRQAPSIATIGSTCDLNLKIPGNWFQMVSAQERLTRTFTRSSHTYTRTERTEISKTRGGETKREVRVEESTQVGGDPFPAVFGDFLGRERLGSFGDITRQQEGEASSQDMTAQVTSPSGKVEAAEIVEGEDSAYSVRFVPQEMGPHTVAVKYRGQHVPGSPFQFTVGPLGEGGAHKVRAGGTGLERGVAGVPAEFSIWTREAGAGGLSIAVEGPSKAEIAFEDRKDGSCGVSYVVQEPGDYEVSIKFNDEHIPDSPFVVPVASLSDDARR [chain 2 S290D] | 1
chain 2 TGDDSMRTSQLNVGTSTDVSLKITESDLSQLTASIRAPSGNEEPCLLKRLPNRHIGISFTPKEVGEHVVSVRKSGKHVTNSPFKILVGPSEIGDASKVRVWGKGLSEGHTFQVAEFIVDTRNAGYGGLGLSIEGPSKVDINCEDMEDGTCKVTYCPTEPGTYIINIKFADKHVPGSPFTVKVTGEGRMKESITRRRQAPSIATIGSTCDLNLKIPGNWFQMVSAQERLTRTFTRSSHTYTRTERTEISKTRGGETKREVRVEESTQVGGDPFPAVFGDFLGRERLGSFGAITRQQEGEASSQDMTAQVTSPSGKVEAAEIVEGEDSAYSVRFVPQEMGPHTVAVKYRGQHVPGSPFQFTVGPLGEGGAHKVRAGGTGLERGVAGVPAEFSIWTREAGAGGLSIAVEGPSKAEIAFEDRKDGSCGVSYVVQEPGDYEVSIKFNDEHIPDSPFVVPVASLSDDARR [chain 2 S290A] | 1
chain 2 TGDDSMRTSQLNVGTSTDVSLKITESDLSQLTASIRAPSGNEEPCLLKRLPNRHIGISFTPKEVGEHVVSVRKSGKHVTNSPFKILVGPSEIGDASKVRVWGKGLSEGHTFQVAEFIVDTRNAGYGGLGLSIEGPSKVDINCEDMEDGTCKVTYCPTEPGTYIINIKFADKHVPGSPFTVKVTGEGRMKESITRRRQAPSIATIGSTCDLNLKIPGNWFQMVSAQERLTRTFTRSSHTYTRTERTEISKTRGGETKREVRVEESTQVGGDPFPAVFGDFLGRERLGDFGSITRQQEGEASSQDMTAQVTSPSGKVEAAEIVEGEDSAYSVRFVPQEMGPHTVAVKYRGQHVPGSPFQFTVGPLGEGGAHKVRAGGTGLERGVAGVPAEFSIWTREAGAGGLSIAVEGPSKAEIAFEDRKDGSCGVSYVVQEPGDYEVSIKFNDEHIPDSPFVVPVASLSDDARR [chain 2 S287D] | 1
chain 2 TGDDSMRTSQLNVGTSTDVSLKITESDLSQLTASIRAPSGNEEPCLLKRLPNRHIGISFTPKEVGEHVVSVRKSGKHVTNSPFKILVGPSEIGDASKVRVWGKGLSEGHTFQVAEFIVDTRNAGYGGLGLSIEGPSKVDINCEDMEDGTCKVTYCPTEPGTYIINIKFADKHVPGSPFTVKVTGEGRMKESITRRRQAPSIATIGSTCDLNLKIPGNWFQMVSAQERLTRTFTRSSHTYTRTERTEISKTRGGETKREVRVEESTQVGGDPFPAVFGDFLGRERLGAFGSITRQQEGEASSQDMTAQVTSPSGKVEAAEIVEGEDSAYSVRFVPQEMGPHTVAVKYRGQHVPGSPFQFTVGPLGEGGAHKVRAGGTGLERGVAGVPAEFSIWTREAGAGGLSIAVEGPSKAEIAFEDRKDGSCGVSYVVQEPGDYEVSIKFNDEHIPDSPFVVPVASLSDDARR [chain 2 S287A] | 1.4
chain 2 TGDDSMRTSQLNVGTSTDVSLKITESDLSQLTASIRAPSGNEEPCLLKRLPNRHIGISFTPKEVGEHVVSVRKSGKHVTNSPFKILVGPSEIGDASKVRVWGKGLSEGHTFQVAEFIVDTRNAGYGGLGLSIEGPSKVDINCEDMEDGTCKVTYCPTEPGTYIINIKFADKHVPGSPFTVKVTGEGRMKESITRRRQAPSIATIGSTCDLNLKIPGNWFQMVSAQERLTRTFTRSSHTYTRTERTEISKTRGGETKREVRVEESTQVGGDPFPAVFGDFLGRERLGDFGDITRQQEGEASSQDMTAQVTSPSGKVEAAEIVEGEDSAYSVRFVPQEMGPHTVAVKYRGQHVPGSPFQFTVGPLGEGGAHKVRAGGTGLERGVAGVPAEFSIWTREAGAGGLSIAVEGPSKAEIAFEDRKDGSCGVSYVVQEPGDYEVSIKFNDEHIPDSPFVVPVASLSDDARR [chain 2 S287D S290D] | 0.82

Source: article PMC7244511, “Phosphoproteomics identifies dual-site phosphorylation in an extended basophilic motif regulating FILIP1-mediated degradation of filamin-C” (Communications Biology, 2020)
